Laboratory results as given in the supplement of paper PMC10724198.
± gives the standard deviation of the averaged measurements.

Test system: Saccharomyces cerevisiae
Experiment: protein stability index of tFT-peptide fusion (C-terminal peptide) (PSI (0-1 scale)); higher = more stable (slower turnover)
Conditions: genetic background: wild type; temperature: 30 C
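Further: PSI is a weighted mean of sequencing reads over stability bins, variants kept only with over 10 reads, mCherry proximal and sfGFP distal, peptide attached via GGGS linker.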

Sequence | protein stability index
GCWGRVLCGGSV | 0.695 ± 0.026
KYKELEAAALQK | 0.732 ± 0.11
KIDKNILTNKEN | 0.673 ± 0.056
LKQKMKETGRRR | 0.666 ± 0.058
NRLRNAGEPTND | 0.782 ± 0.069
PPPPPSPRALLP | 0.657 ± 0.028
HTEELKKSIKTQ | 0.637 ± 0.082
PPGPPPPPAPPL | 0.724 ± 0.062
GGWGTGTSGQGR | 0.715 ± 0.027
TTTFPFGRLVLS | 0.68 ± 0.028
HPVPFSVASHLN | 0.645 ± 0.03
QWFTCLFYFRSP | 0.5697 ± 0.0029
YTPEVSVFFFRT | 0.6233 ± 0.0014
PPLPSFILSPRA | 0.705 ± 0.027
KKICPDFGLLLV | 0.591 ± 0.004
LPRPPPTSSTPL | 0.784 ± 0.16
RLDVVGVPERTL | 0.762 ± 0.047
VKGRKNEGPGKR | 0.748 ± 0.065
LRHVARCARGGA | 0.647 ± 0.095
APASSSAHTPFP | 0.723 ± 0.019
GWGGGCGCGRGI | 0.687 ± 0.058

Sequence | protein stability index
CPLLSCAAFLSS | 0.719 ± 0.025
PLPSARPPPLPS | 0.685 ± 0.011
SLGFRSLGFDRV | 0.7195 ± 0.0024
WGVGWVLEVLLG | 0.529 ± 0.0066
CRGGPLGYGCGS | 0.827 ± 0.17
PLPPPPPPPPPT | 0.681 ± 0.023
EHKVQTTTNQKE | 0.697 ± 0.011
RSEPRQILHRQT | 0.702 ± 0.025
RCGSWKGVRGVM | 0.693 ± 0.032
GKAKGRESGDRQ | 0.678 ± 0.039
SRRNRIYSHTSS | 0.666 ± 0.025
PPSPLPPAPPSP | 0.668 ± 0.029
RHRPLPETDLAS | 0.708 ± 0.016
ATFSVMRGQHGQ | 0.686 ± 0.0057
PPPRPRSLTCPA | 0.73 ± 0.14
PPPSPPPYRLPP | 0.7 ± 0.016
PSGNGAPRVHRK | 0.65 ± 0.011
HFGRYLSSVFGV | 0.679 ± 0.05
VLLAVGELFRVD | 0.649 ± 0.0084
YLPRHPLPPFPV | 0.681 ± 0.14
GGSFVLGAALGV | 0.668 ± 0.039

Sequence | protein stability index
SAFPGGCCSILL | 0.709 ± 0.022
DPGTNGGCAPPV | 0.676 ± 0.0014
SPPSPPPSPPTL | 0.77 ± 0.092
TGISPWPPSERR | 0.808 ± 0.19
SPGPPLPSLTLP | 0.738 ± 0.065
RGKKGQKEPAEK | 0.688 ± 0.048
VSFGFHKWCHSR | 0.638 ± 0.015
ERNKKKNNQVNK | 0.619 ± 0.054
RCLPSASYPACS | 0.691 ± 0.074
PPPPPPTPDPLA | 0.666 ± 0.048
WGAGGGVWWGGV | 0.704 ± 0.03
LLPPPPVPTPDR | 0.659 ± 0.12
PSPSPNALALLR | 0.71439 ± 0.00045
EVESYVVSGDRW | 0.608 ± 0.042
GVQCLVFIGRPK | 0.69 ± 0.093
LFRPFATALFPL | 0.747 ± 0.066
SGCVARTRGLSG | 0.62 ± 0.018
KSLYLVDDRVGR | 0.764 ± 0.078
PSLPPPSPSTAP | 0.713 ± 0.03
LLAFLPPPPCPP | 0.709 ± 0.036
RQPRPPDDIASV | 0.678 ± 0.032

Sequence | protein stability index
LSGLFMAARIFI | 0.627 ± 0.06
YHSSHTGEFLFL | 0.658 ± 0.053
TPLHRIGGLHLK | 0.653 ± 0.0075
GRVVGDGRSVGV | 0.683 ± 0.01
VGGGCGVRVVVV | 0.684 ± 0.05
RVGTGFVGYSFS | 0.679 ± 0.13
PSPLPSPPPPPP | 0.625 ± 0.0074
STVGSKLCWESS | 0.682 ± 0.072
RRIGKTFLSLNI | 0.709 ± 0.073
PYEPTIALPLLL | 0.683 ± 0.058
ERARGKGAGKAE | 0.688 ± 0.019
PAPPPPLLPRSL | 0.727 ± 0.011
WGGVRRHGVGGS | 0.648 ± 0.1
LRPLPPPAPCKF | 0.774 ± 0.04
KKGRTVEKKKGD | 0.694 ± 0.0039
LPPPLPPLLPLP | 0.675 ± 0.014
GRLSPRRPRLLV | 0.645 ± 0.024
SPGLLPPPTSAF | 0.71 ± 0.017
